In paper PMC12297416:

Biological target: NusA (E. coli (endogenous in MG1655)) (UniProt P0AFF6)
Assay: single-molecule tracking in live cells; HaloTag fusions labelled with JFX549 in growing E. coli at 37 °C; 5 ms camera exposure; HMM fit of diffusion trajectories, 5-state models coarse-grained with a threshold at 1 µm^2/s (slow diffusion state = bound)

dwell time in the slow-diffusion state: 30 ms
occupancy in the slow state (after cell sorting by size): 11%
steady-state fraction in the slow-diffusion state: 14%
Substance: IF2-Domain-I-HaloTag (domain or fragment)
